{"source": "patent US20050119454A1", "target": "human long isoform dopamine D2 (D2DA) receptor (human), P14416", "sequence (P14416 whole entry, canonical isoform)": "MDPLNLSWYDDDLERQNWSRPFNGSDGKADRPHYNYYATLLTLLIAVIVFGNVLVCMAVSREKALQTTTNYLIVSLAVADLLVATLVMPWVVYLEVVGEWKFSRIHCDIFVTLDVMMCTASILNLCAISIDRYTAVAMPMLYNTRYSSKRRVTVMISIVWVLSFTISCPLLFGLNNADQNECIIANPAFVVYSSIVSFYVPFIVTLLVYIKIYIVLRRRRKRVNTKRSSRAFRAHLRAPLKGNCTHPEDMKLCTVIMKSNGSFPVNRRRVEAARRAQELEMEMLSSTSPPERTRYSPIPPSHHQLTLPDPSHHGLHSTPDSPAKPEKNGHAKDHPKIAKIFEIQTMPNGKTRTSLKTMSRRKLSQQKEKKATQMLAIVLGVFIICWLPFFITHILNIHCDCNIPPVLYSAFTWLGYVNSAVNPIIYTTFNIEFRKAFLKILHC", "assay": "cell-based or functional assay"}
{"binder": "H-ERNRKPYRPKNKYLL-OH", "values": [{"measurement": "EAR response to dopamine, LtK system, paired one-tailed t-test", "result": 69.8, "unit": "t statistic"}, {"measurement": "dopamine-induced EAR, CHO cells, paired one-tailed t-test", "result": 1.28, "unit": "t statistic"}]}
{"binder": "H-THQAFHYCNKQCLVI-OH (cysteine pairing not given here)", "values": [{"measurement": "potentiation of the dopamine response (EAR), CHO system, paired one-tailed t-test", "result": 1.31, "unit": "t statistic"}, {"measurement": "potentiation of the dopamine response (EAR), LtK system, paired one-tailed t-test", "result": 0.62, "unit": "t statistic"}]}
{"binder": "H-SHQRWEYKGVNCIVY-OH", "values": [{"measurement": "potentiation of the dopamine-induced increment in total milli-pH units (EAR), CHO system, paired one-tailed t-test", "result": 28.1, "unit": "t statistic"}, {"measurement": "potentiation of the dopamine-induced increment in total milli-pH units (EAR), LtK system, paired one-tailed t-test", "result": 13.3, "unit": "t statistic"}]}
{"binder": "ERNRKPLRPKNKYLI", "note": "[…]", "values": [{"measurement": "EAR response to dopamine, LtK system, paired one-tailed t-test", "result": 25.5, "unit": "t statistic"}, {"measurement": "dopamine-induced EAR, CHO cells, paired one-tailed t-test", "result": 1.54, "unit": "t statistic"}]}
